Source: patent publication US9228015B2, “Nogo receptor antagonists and methods of increasing neurite outgrowth” (Biogen Idec MA Inc., priority 2006, dated 2016)
“Also recorded” adds a separate entry of the source.

What was measured:
[1] = molecular target: T1, mouse NgR3 (Mus musculus, UniProt Q8K0S5); test: Antibody binding specificity: mouse Nogo receptor-3
T1 sequence (Q8K0S5 25-424): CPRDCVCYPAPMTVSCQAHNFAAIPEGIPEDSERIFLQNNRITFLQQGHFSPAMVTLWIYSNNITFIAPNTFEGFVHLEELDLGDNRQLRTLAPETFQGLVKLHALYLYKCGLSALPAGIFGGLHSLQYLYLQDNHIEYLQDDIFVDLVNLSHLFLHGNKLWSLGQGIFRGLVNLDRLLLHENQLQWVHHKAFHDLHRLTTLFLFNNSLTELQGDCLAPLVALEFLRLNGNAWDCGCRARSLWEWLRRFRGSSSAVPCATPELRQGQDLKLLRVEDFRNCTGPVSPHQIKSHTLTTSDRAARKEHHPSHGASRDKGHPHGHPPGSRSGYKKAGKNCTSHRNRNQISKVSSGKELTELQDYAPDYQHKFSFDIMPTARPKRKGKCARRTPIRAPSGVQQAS

[2] = molecular target: T2, OM-gp + sNogoR344-Fc (Rattus norvegicus, UniProt Q99M75, A303T/C287S/C43R/E284G/T53A); test: ELISA: inhibition of OM-gp binding to sNogoR344-Fc
T2 construct: amino acid residues 26-344 of rat Nogo receptor-1; made in house; CHO (DG44) is described only for sNogoR310-Fc
T2 sequence (Q99M75 26-344 C43R/T53A/E284G/C287S/A303T): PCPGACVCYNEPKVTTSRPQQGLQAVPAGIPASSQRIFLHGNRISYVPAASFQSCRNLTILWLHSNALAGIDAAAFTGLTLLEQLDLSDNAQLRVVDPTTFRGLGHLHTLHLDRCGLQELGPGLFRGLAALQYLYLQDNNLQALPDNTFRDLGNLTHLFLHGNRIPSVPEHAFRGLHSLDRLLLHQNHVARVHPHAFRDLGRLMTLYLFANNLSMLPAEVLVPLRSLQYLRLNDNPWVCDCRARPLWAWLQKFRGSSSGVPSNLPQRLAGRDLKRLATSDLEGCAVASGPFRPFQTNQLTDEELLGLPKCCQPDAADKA
Procedure: (§1) 0.5 μg of a soluble Nogo receptor-1 fusion protein comprising amino acid residues 26-344 of rat Nogo receptor-1 and the hinge and Fc region of the rat IgG1 molecule (sNogoR344-Fc) produced as described below was immobilized on […] of protein-A- or wheatgerm agglutinin-conjugated SPA beads (Amersham Pharmacia Biotech) for 2 hours at 25° C. SPA beads coupled with Fc-sNogoR-1, anti-Nogo receptor-1 mAb and 1 μl ^125I-Nogo66 (Amersham, 2000 Ci/mmol, 1 nM) in […] of the HEPES-buffered incubation medium (10 mM HEPES, pH 7.4, 0.1% bovine serum albumin, 0.1% ovalbumin, 2 mM MgCl2, 2 mM CaCl2 and protease inhibitors) was added to each sample well. After 16 hours, radioactivity was measured in quadruplicate samples using a TopCount® (Packard). IC50 values were calculated from a curve-fit analysis (FIG. 3) (PRISM, GraphPad Software, NJ). In some experiments, we also used AP-ligand conjugates (e.g. AP-Nogo66) and detected binding by monitoring alkaline phosphatase activity. We also assayed the ability of the mAbs to block binding of the ligands MAG-Fc and AP-OM-gp to Nogo receptor-1.
(§2) Monoclonal antibodies 7E11, 5B10, 1H2, 3G5 and 2F7 all inhibited binding of Nogo66, MAG and OM-gp to sNogoR344-Fc. The calculated IC50 for Nogo66 for 7E11 and 1H2 were 400 nM and 60 nM, respectively. The data from ELISAs monitoring mAb-mediated inhibition of binding of the three ligands to Nogo receptor-1 are summarized in Table 6.
(§3) The percent displacement is shown at 30 nM antibody and the EC50 for certain mAbs determined from curve-fit analysis as described. “-” indicates no detectable activity and “ND” indicates not determined.
(§4) We also performed ELISA binding assays using the Fab-phage 141)5.

[3] = molecular target: T3, panel of Nogo receptor-1 polypeptides (sNogoR310-Fc, sNogoR344-Fc, p-617, p-618, p-4, p-5) (Rattus norvegicus, UniProt Q99M75); test: Antibody specificity ELISA with a panel of Nogo receptor-1 polypeptides; type: binding
T3 construct: made in house
Text: To determine the specificity of the monoclonal and Fab-phage antibodies produced in Examples 1 and 2, we performed an ELISA using a panel of Nogo receptor-1 polypeptides. The panel consisted of sNogoR310-Fc (a fusion protein comprising amino acids 26-310 of rat Nogo receptor-1 and a rat Fc fragment), sNogoR344-Fc (see supra), polypeptide p-617 (SEQ ID NO: 1), polypeptide p-618 (a 19-amino acid polypeptide from the LRR7 region of rat Nogo receptor-1; FIG. 2; SEQ ID NO: 11) and polypeptides p-4 and p-5 (polypeptides from the LRR5 and LRRCT regions of Nogo receptor-1, respectively). Ovalbumin and BSA were used as controls.

[4] = molecular target: T4, human NgR2 (Homo sapiens, UniProt Q86UN3); test: Antibody binding specificity: human Nogo receptor-2
T4 sequence (Q86UN3 47-390): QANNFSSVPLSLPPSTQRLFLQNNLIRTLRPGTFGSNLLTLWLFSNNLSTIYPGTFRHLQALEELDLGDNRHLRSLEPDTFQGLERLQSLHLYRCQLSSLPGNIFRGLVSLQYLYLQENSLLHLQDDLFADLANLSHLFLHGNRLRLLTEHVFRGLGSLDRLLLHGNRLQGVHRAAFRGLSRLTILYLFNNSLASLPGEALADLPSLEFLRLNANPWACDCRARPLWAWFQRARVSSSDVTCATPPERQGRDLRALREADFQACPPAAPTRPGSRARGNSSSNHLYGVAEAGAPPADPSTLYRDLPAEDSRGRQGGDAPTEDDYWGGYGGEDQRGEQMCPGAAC

[5] = molecular target: T5, human NgR1 (Homo sapiens, UniProt Q9BZR6); test: Antibody binding specificity: human Nogo receptor-1
T5 sequence (Q9BZR6 27-447): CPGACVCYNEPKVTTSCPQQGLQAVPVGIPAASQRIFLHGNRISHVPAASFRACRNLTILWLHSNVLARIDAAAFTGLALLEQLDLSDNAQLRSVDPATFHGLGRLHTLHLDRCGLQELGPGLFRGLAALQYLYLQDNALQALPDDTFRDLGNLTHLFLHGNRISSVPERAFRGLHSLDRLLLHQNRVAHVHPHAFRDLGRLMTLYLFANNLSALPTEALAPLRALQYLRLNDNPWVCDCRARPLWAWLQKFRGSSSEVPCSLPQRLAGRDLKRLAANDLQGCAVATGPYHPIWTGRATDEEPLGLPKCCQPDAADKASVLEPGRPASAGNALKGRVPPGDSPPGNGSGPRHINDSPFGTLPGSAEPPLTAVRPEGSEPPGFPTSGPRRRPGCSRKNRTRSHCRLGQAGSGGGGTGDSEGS

[6] = molecular target: T6, Nogo66 + sNogoR344-Fc (Rattus norvegicus, UniProt Q99M75, A303T/C287S/C43R/E284G/T53A); test: ELISA: inhibition of Nogo66 binding to sNogoR344-Fc
T6 construct: amino acid residues 26-344 of rat Nogo receptor-1; made in house
T6 sequence (Q99M75 26-344 C43R/T53A/E284G/C287S/A303T): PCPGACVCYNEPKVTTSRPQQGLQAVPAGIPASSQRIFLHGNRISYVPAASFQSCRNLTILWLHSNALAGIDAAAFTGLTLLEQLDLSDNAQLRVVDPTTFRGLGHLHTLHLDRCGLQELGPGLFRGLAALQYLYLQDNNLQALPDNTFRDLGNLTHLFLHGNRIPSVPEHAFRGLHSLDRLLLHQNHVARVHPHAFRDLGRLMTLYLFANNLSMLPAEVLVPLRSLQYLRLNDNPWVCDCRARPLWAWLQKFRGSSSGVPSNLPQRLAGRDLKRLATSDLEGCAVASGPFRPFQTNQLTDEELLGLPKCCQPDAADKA
Procedure: as §1, §2, §3, §4

- binding to mouse Nogo receptor-3 [1]: not
- inhibition of binding of OM-gp to sNogoR344-Fc [2]: inhibited
- EC50 ([2]; curve-fit analysis): 0.15 µM
- binding to polypeptide p-617 (SEQ ID NO: 1) [3]: specifically bound
- binding to human Nogo receptor-2 [4]: not
- binding to human Nogo receptor-1 [5]: bound; also recorded: binds well
- inhibition of binding of Nogo66 to sNogoR344-Fc [6]: inhibited
- EC50 ([6]; curve-fit analysis): 1.7 µM
B1: 7E11: murine monoclonal anti-Nogo receptor-1 antibody, immunogen rat Nogo receptor-1 residues 110-125, IgG1 kappa, ATCC PTA-4587 (antibody, V domains shown)
VH: VQLQESGAELVMPGASVKMSCKASGYTFTDYWMHWVKQRPGQGLEWIGAIDPSDSYSSYNQNFKGKATLTVDGSSSTAYMQLSSLTSEDSAVYYCARRITEAGAWFAYWGQGTTVT
VL: MKLPVRLLVLMFWIPASSSDVVMTQTPLSLPVSLGDQASISCRSSQSLVHSNGNTYLHWYLQKPGQSPKLLIYKVSNRFSGVPDRFSGSGSGTDFTLKISRVDAEDLGVYFCSQSTHVPFTFGGGTKLEIKRADAAPTVSISHH
modifications: 7E11 heavy chain; 7E11 light chain
notes: murine monoclonal anti-Nogo receptor-1 antibody, immunogen rat Nogo receptor-1 residues 110-125, IgG1 kappa, ATCC PTA-4587
